The chains are these.
B1: ALFA-tagged IRT1 (iron-regulated transporter 1), wildtype [Arabidopsis thaliana] / CIPK23 fused to the mCitC fragment [not stated] (parent)
chain 1: MASRTTPSRSTPSRSTPSGSSSGGRTRVGKYELGRTLGEGTFAKVKFARNVENGDNVAIKVIDKEKVLKNKMIAQIKREISTMKLIKHPNVIRMFEVMASKTKIYFVLEFVTGGELFDKISSNGRLKEDEARKYFQQLINAVDYCHSRGVYHRDLKPENLLLDANGALKVSDFGLSALPQQVREDGLLHTTCGTPNYVAPEVINNKGYDGAKADLWSCGVILFVLMAGYLPFEDSNLTSLYKKIFKAEFTCPPWFSASAKKLIKRILDPNPATRITFAEVIENEWFKKGYKAPKFENADVSLDDVDAIFDDSGESKNLVVERREEGLKTPVTMNAFELISTSQGLNLGSLFEKQMGLVKRKTRFTSKSSANEIVTKIEAAAAPMGFDVKTNNYKMKLTGEKSGRKGQLAVATEVFQVAPSLYMVEMRKSGGDTLEFHKFYKNLTTGLKDIVWKTIDEEKEEGTDGGGTNGAMANRTIAKQST
chain 2: ISPATSTAPEECGSESANPCVNKAKALPLKVIAIFVILIASMIGVGAPLFSRNVSFLQPDGNIFTIIKCFASGIILGTGFMHVLPDSFEMLSSICLEENPWHKFPFSGFLAMLSGLITLAIDSMATSLYTSKNAVGIMPHGHGHGHGPANDVTLPIKEDDSSNAQLLRYRVIAMVLELGIIVHSVVIGLSLGATSDTCTIKGLIAALCFHQMFEGMGLGGCILQAEYTNMKKFVMAFFFAVTTPFGIALGIALSTVYQDNSPKALITVGLLNACSAGLLIYMALVDLLAAEFMGPKLQGSIKMQFKCLIAALLGCGGMSIIAKWA

In the assay the parent is B1. In words: trimolecular fluorescence complementation (TriFC). The settings on record: with CIPK23 fused to the mCitC fragment; parent: 74; read off a plot.
For the variant chain 2 H140A H142A, the response came to 46.
In the case of chain 2 D151Q, the response is 67.
With chain 2 H140A H142A D151Q, the response was found to be 23.

(Values after publication PMC12203963.)
